Three molecules from patent publication US20210115133A1 (NGM BIOPHARMACEUTICALS, published 2021) can be followed below.

Residue numbers refer to the chain shown, from its start.

In assay [1] the target is T1, human beta klotho protein (human, UniProt Q86Z14 53-997, limits assumed).
T1 construct: also called HuKLB; human beta klotho (R&D Systems)
T1 sequence: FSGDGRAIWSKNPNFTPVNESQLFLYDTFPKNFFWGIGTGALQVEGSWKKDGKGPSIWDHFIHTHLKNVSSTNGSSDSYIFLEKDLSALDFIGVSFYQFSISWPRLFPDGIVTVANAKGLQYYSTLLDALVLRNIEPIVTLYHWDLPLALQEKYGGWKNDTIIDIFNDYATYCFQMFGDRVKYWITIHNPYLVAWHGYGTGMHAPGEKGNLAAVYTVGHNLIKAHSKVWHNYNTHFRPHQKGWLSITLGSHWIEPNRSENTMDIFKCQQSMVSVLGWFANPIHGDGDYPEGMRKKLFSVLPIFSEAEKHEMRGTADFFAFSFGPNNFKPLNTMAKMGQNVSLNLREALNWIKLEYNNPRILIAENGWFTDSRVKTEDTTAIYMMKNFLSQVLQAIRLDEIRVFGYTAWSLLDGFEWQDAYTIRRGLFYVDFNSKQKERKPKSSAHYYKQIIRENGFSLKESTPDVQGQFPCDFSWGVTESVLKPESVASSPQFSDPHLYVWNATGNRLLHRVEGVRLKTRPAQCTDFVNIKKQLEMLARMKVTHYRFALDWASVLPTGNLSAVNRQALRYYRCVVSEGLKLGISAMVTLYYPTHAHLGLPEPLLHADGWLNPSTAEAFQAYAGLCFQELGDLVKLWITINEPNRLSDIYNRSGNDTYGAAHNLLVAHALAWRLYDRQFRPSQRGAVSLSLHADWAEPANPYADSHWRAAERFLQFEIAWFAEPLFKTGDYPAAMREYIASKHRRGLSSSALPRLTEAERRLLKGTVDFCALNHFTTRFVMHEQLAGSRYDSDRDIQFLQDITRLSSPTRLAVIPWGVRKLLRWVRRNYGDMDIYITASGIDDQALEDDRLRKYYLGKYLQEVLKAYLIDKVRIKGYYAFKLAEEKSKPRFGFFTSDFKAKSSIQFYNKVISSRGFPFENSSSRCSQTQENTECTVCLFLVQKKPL
Put plainly: Biacore SPR; antibody captured on anti-mouse Fc CM5 chip, beta klotho 1.56-25 nM injected, 25 C. As to the method:
Binding affinity measurements were also made in additional Biacore based assays. For example, equilibrium dissociation constant (KD) measurements were carried out with purified antibodies to evaluate their binding to human beta klotho and cyno beta klotho. As mentioned above, anti-mouse Fc antibody (Sigma-Aldrich, St. Louis, Mo.) was immobilized on all four flow cells of a CM5 chip using amine coupling reagents (GE Healthcare LifeSciences, Piscataway, N.J.). Purified antibodies were captured (˜100 RUs) on flow cells 2, 3 and 4 using flow cell 1 as a reference. This was followed by injection of different concentrations of human or cyno beta klotho (1.56 nM to 25 nM, two-fold dilutions in PBS-P buffer) at a flow rate of 70 μL/min and the binding kinetics were evaluated at 25° C.
In general terms: SPR reads the build-up and loss of mass on a sensor chip optically.

For assay [2], the target named is T2, human beta klotho expressed on cells (human, UniProt Q86Z14 1-1044).
T2 construct: in the reporter assays HEK293 cells were transfected with a GeneCopoeia human beta klotho plasmid together with human FGFR1c; in the adipocyte assay the beta klotho/FGFR1c is endogenous; also called HuKLB overexpressing cells; huKLB/R1c
T2 sequence: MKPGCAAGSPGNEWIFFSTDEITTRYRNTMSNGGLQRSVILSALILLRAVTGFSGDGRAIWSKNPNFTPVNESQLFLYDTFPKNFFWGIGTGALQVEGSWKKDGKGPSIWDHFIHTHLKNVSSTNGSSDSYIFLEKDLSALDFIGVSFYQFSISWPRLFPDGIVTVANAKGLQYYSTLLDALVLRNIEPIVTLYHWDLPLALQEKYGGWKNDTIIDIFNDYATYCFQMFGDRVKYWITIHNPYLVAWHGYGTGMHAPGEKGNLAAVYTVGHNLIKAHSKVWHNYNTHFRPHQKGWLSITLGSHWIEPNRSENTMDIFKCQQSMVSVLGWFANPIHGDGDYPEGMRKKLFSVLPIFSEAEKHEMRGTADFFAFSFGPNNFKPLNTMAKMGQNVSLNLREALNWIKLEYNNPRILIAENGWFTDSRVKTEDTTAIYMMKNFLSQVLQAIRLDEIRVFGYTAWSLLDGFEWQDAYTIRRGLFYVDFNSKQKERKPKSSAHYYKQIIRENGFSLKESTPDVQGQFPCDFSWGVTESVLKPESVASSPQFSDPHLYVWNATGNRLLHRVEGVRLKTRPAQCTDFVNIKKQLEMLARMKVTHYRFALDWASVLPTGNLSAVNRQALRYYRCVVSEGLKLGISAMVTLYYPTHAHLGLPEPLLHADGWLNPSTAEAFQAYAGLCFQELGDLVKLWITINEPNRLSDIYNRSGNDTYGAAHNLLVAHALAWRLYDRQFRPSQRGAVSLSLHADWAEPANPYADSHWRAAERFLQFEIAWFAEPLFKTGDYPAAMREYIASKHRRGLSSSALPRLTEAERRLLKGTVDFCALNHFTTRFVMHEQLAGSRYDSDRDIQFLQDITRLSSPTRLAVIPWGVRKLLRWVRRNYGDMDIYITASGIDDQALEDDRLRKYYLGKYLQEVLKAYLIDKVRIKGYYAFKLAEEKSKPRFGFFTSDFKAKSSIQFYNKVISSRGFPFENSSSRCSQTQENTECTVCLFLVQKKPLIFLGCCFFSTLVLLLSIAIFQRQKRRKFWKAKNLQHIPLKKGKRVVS
Put plainly: FACS competition on HuKLB overexpressing cells; cells pre-incubated with the row's antibody, competitor: labelled 9E19-Alexa647. The procedure:
(§1) For example, for competition binding assays by FACS analysis, antibody standards were prepared that were conjugated to a fluorochrome using either A488 or A647 antibody labeling kit (Invitrogen) following manufacturer's instructions. A dose titration of the conjugated antibody standard was evaluated using HuKLB overexpressing cells. The plateau of the maximal signal of antibody binding is EC=100 and the background signal is EC=0. Competition by FACS against the fluorochrome labeled antibody was performed by pre-incubating HuKLB overexpressing cells with hybridoma supernatants for 15 minutes at room temperature. Without washing, an EC=10 concentration of A488 or A647 labelled antibody standard was added. EC=10 for an individual antibody was determined by 10% of signal using the maximum signal as (100%) and background signal as (0%). After 30 minutes at 4° C., cells are washed and analyzed by FACS. […] A partial competing antibody is one sample that show signal between labelled antibody alone and background. Antibodies that show complete competition against the same standard antibody are considered to be in the same bin.
(§2) In exemplary competition binding experiments by FACS, antibody 3I13 or 9E19 was used as an antibody standard fora positive control (competing antibody) or a negative control (labeled antibody alone), respectively. Representative results are shown in Table 5 below reported as mean fluorescence intensity (MFI).

In assay [3] the target is T2, human beta klotho expressed on cells. Description: FACS competition on HuKLB overexpressing cells; cells pre-incubated with the row's antibody, competitor: labelled 3I13-Alexa488. The procedure: as §1, §2

B1: anti-beta klotho monoclonal antibody 3I13 (antibody, V domains shown)
VH: QVQLQQSGPELVKPGASVKISCKTSGYTFTEYTMHWVKQSHGKSLEWIGSFNPDSGGTSYNQKFKGKATLTVDKSSSTAYMELRSLTSEDSAVYYCARDDGYSTRYWYFDVWGAGTTVTVSS
VL: DIQMTQSPASLSASVGETVTITCGASENIYGALNWFQRKQGKSPQLLIYGATILADGMSSRFSGSGSGRQYSLKISSLHPDDVATYYCQNVLSTPYTFGGGTKLEIK
notes: Murine monoclonal antibody from a hybridoma (captured by anti-mouse Fc); also called 3I13 - Alexa488
On to B1, for which the affinity in assay [1], expressed as Kd, was 0.4 nM. Also, the “Mean Florescence Intensity (MFI)” value stood at 27.8 MFI in assay [2] and 8.1 MFI in assay [3].

B2: anti-beta klotho monoclonal antibody 4A2 (antibody, V domains shown)
VH: B1 VH with Q1E, A16T, H35Y, S50G, D54N, S55Y, T58A, G66D
VL: B1 VL with F36Y, I53N
notes: Murine monoclonal antibody from a hybridoma
B2: in assay [1], the affinity, expressed as Kd, was 0.92 nM. Also, the “Mean Florescence Intensity (MFI)” value in assay [2] is 28.5 MFI; in assay [3] it was 9.1 MFI.

B3: anti-beta klotho monoclonal antibody 2J21 (antibody, V domains shown)
VH: B1 VH with Q1E, T33I, S50N, F51I, N52D, D54N, S55T, S77I, Y80F
VL: B1 VL with A9P, F36Y, I53N
notes: as for B2
Turning to B3, the Kd – broadly, the constant that tells how readily two partners part at equilibrium – in assay [1] was determined as 4.8 nM. In addition, the “Mean Florescence Intensity (MFI)” value in assay [2] is 25.7 MFI; in assay [3], 10.2 MFI.
